This passage reports Binding affinity (RU) results from patent publication US20250011363A1, “OPTIMIZED SHORTENED PEPTIDE THAT BINDS TO ACETYLCHOLINE RECEPTOR, AND USE THEREOF” (SKINMED CO., LTD., priority 2021, published 2025).

For the experiment, the target named is acetylcholine receptor. As to the kind of experiment: SPR, AchR immobilized on CM5 chip, peptide at 10 uM.

B1: 6mer-2-337 (peptide)
peptide: KQFQKK
Turning to B1, the Binding affinity (RU) worked out at 142 RU.

B2: 6mer-2-383 (peptide)
peptide: KLVRRK
B2 registered a Binding affinity (RU) of 128 RU.

B3: 6mer-2-348 (peptide)
peptide: KSQLRR
For the molecule B3, the Binding affinity (RU) was 153 RU.

B4: 6mer-2-345 (peptide)
peptide: KSRQKK
For B4, the Binding affinity (RU) is 148 RU.

B5: 6mer-2-340 (peptide)
peptide: RRLTRR
B5 had a Binding affinity (RU) of 122 RU.

B6: 6mer-2-357 (peptide)
peptide: RGQRKK
In turn, B6 came in with a Binding affinity (RU) of 151 RU.

B7: 6mer-2-347 (peptide)
peptide: RRYSKK
Turning to B7, the Binding affinity (RU) turned out to be 148 RU.

B8: 6mer-1-848 (peptide)
peptide: RKTMFK
For B8, the Binding affinity (RU) is 19 RU.

B9: 6mer-2-379 (peptide)
peptide: RGVQKR
In turn, B9 yielded a Binding affinity (RU) of 127 RU.

B10: 6mer-1-849 (peptide)
peptide: KKFNWK
The molecule B10 had a Binding affinity (RU) of 21 RU.

B11: 6mer-1-853 (peptide)
peptide: KRCNGR
With B11, the Binding affinity (RU) was 30 RU.

B12: 6mer-1-845 (peptide)
peptide: KKIDKK
Molecule B12 registered a Binding affinity (RU) of 23 RU.

B13: 6mer-1-861 (peptide)
peptide: KRINIR
B13 returned a Binding affinity (RU) of 21 RU.

B14: 6mer-1-855 (peptide)
peptide: RKCDVR
In turn, B14 displayed a Binding affinity (RU) of 15 RU.

B15: 6mer-2-368 (peptide)
peptide: RLRTRR
In turn, B15 yielded a Binding affinity (RU) of 142 RU.

B16: 6mer-2-366 (peptide)
peptide: KQYYRR
B16 returned a Binding affinity (RU) of 142 RU.

B17: 6mer-1-856 (peptide)
peptide: KRMWFK
In turn, B17 returned a Binding affinity (RU) of 30 RU.

B18: 6mer-2-376 (peptide)
peptide: KQQCKR
With B18, the Binding affinity (RU) worked out at 141 RU.

B19: 6mer-1-860 (peptide)
peptide: RKHWWR
Take B19: the Binding affinity (RU) turned out to be 22 RU.

B20: 6mer-2-350 (peptide)
peptide: RGQTRK
B20 yielded a Binding affinity (RU) of 148 RU.

B21: 6mer-1-863 (peptide)
peptide: RRCTER
In the case of B21, the Binding affinity (RU) was 27 RU.

B22: 6mer-2-352 (peptide)
peptide: RWFYRR
B22 gave a Binding affinity (RU) of 137 RU.

B23: 6mer-1-850 (peptide)
peptide: RRNPEK
In turn, B23 returned a Binding affinity (RU) of 29 RU.

B24: 6mer-2-380 (peptide)
peptide: RLVYRK
As to B24, the Binding affinity (RU) came to 141 RU.

B25: 6mer-2-338 (peptide)
peptide: RSVQKR
As for B25, the Binding affinity (RU) amounted to 145 RU.

B26: 6mer-2-339 (peptide)
peptide: KQVYKK
Molecule B26 gave a Binding affinity (RU) of 151 RU.

B27: 6mer-2-372 (peptide)
peptide: KLVQRR
Molecule B27 returned a Binding affinity (RU) of 141 RU.

B28: 6mer-2-335 (peptide)
peptide: KWRSRR
In the case of B28, the Binding affinity (RU) was 153 RU.

B29: 6mer-2-377 (peptide)
peptide: RRYCRR
Molecule B29 came in with a Binding affinity (RU) of 142 RU.

B30: 6mer-2-370 (peptide)
peptide: KSLLRR
In turn, B30 came in with a Binding affinity (RU) of 142 RU.

B31: 6mer-2-358 (peptide)
peptide: RQIYKK
Turning to B31, the Binding affinity (RU) was 154 RU.

B32: 6mer-2-369 (peptide)
peptide: KVVRRR
As for B32, the Binding affinity (RU) was 145 RU.

B33: 6mer-2-351 (peptide)
peptide: KLYTKR
For the molecule B33, the Binding affinity (RU) came to 135 RU.

B34: 6mer-2-346 (peptide)
peptide: KRFSKK
As to B34, the Binding affinity (RU) amounted to 153 RU.

B35: 6mer-2-378 (peptide)
peptide: KRFQRK
Consider B35, for which the Binding affinity (RU) is 131 RU.

B36: 6mer-1-851 (peptide)
peptide: RRYMEK
Consider B36, for which the Binding affinity (RU) turned out to be 30 RU.

B37: 6mer-2-361 (peptide)
peptide: RSFQRR
With B37, the Binding affinity (RU) amounted to 153 RU.

B38: 6mer-2-365 (peptide)
peptide: RWRYRR
B38: the Binding affinity (RU) worked out at 121 RU.

B39: 6mer-1-852 (peptide)
peptide: KRASVK
For B39, the Binding affinity (RU) stood at 19 RU.

B40: 6mer-1-846 (peptide)
peptide: RKDAEK
On to B40, for which the Binding affinity (RU) worked out at 28 RU.

B41: 6mer-2-363 (peptide)
peptide: KSIYRK
Regarding B41, the Binding affinity (RU) was determined as 147 RU.

B42: 6mer-2-359 (peptide)
peptide: RLFCKK
B42 gave a Binding affinity (RU) of 136 RU.

B43: 6mer-2-353 (peptide)
peptide: RLQTKK
In turn, B43 yielded a Binding affinity (RU) of 137 RU.

B44: 6mer-1-864 (peptide)
peptide: RRTWGR
As for B44, the Binding affinity (RU) came out at 32 RU.

B45: 6mer-1-865 (peptide)
peptide: KKMTAR
Molecule B45 showed a Binding affinity (RU) of 21 RU.

B46: 6mer-1-854 (peptide)
peptide: KKEAVR
The molecule B46 had a Binding affinity (RU) of 16 RU.

B47: 6mer-2-364 (peptide)
peptide: KVFTKK
The molecule B47 came in with a Binding affinity (RU) of 154 RU.

B48: 6mer-2-342 (peptide)
peptide: KRYRKK
Molecule B48 displayed a Binding affinity (RU) of 145 RU.

B49: 6mer-1-847 (peptide)
peptide: KKYNHK
B49 registered a Binding affinity (RU) of 20 RU.

B50: 6mer-2-382 (peptide)
peptide: KSVSRR
B50 registered a Binding affinity (RU) of 148 RU.

B51: 6mer-1-859 (peptide)
peptide: RKCMVK
B51 returned a Binding affinity (RU) of 27 RU.

B52: 6mer-2-343 (peptide)
peptide: KQISKK
For the molecule B52, the Binding affinity (RU) was 146 RU.

B53: 6mer-2-367 (peptide)
peptide: RWRSRR
For the molecule B53, the Binding affinity (RU) stood at 142 RU.

B54: 6mer-1-862 (peptide)
peptide: KKHSEK
For the molecule B54, the Binding affinity (RU) worked out at 32 RU.

B55: 6mer-2-371 (peptide)
peptide: KRLSRR
Regarding B55, the Binding affinity (RU) came out at 148 RU.

B56: 6mer-2-356 (peptide)
peptide: RLLQRR
For the molecule B56, the Binding affinity (RU) was 145 RU.

B57: 6mer-2-354 (peptide)
peptide: RWISKK
For the molecule B57, the Binding affinity (RU) stood at 135 RU.

B58: 6mer-2-381 (peptide)
peptide: KVYRRR
Turning to B58, the Binding affinity (RU) stood at 139 RU.

B59: 6mer-2-344 (peptide)
peptide: KGIRRK
B59 yielded a Binding affinity (RU) of 148 RU.

B60: 6mer-2-341 (peptide)
peptide: KVVTKR
Turning to B60, the Binding affinity (RU) came to 144 RU.

B61: 6mer-2-373 (peptide)
peptide: KLIYRK
B61 gave a Binding affinity (RU) of 139 RU.

B62: 6mer-2-374 (peptide)
peptide: KRQLKK
B62: the Binding affinity (RU) came out at 125 RU.

B63: 6mer-2-360 (peptide)
peptide: KGVRRR
As for B63, the Binding affinity (RU) worked out at 141 RU.

B64: 6mer-2-362 (peptide)
peptide: RGRQKR
On to B64, for which the Binding affinity (RU) is 154 RU.

B65: 6mer-2-355 (peptide)
peptide: RGIRKK
Regarding B65, the Binding affinity (RU) came to 124 RU.

B66: 6mer-2-384 (peptide)
peptide: RSFQKK
Turning to B66, the Binding affinity (RU) came to 142 RU.

B67: 6mer-2-375 (peptide)
peptide: RVVQKK
As to B67, the Binding affinity (RU) is 131 RU.

B68: 6mer-1-857 (peptide)
peptide: KRPAFK
In the case of B68, the Binding affinity (RU) was 14 RU.

B69: 6mer-1-858 (peptide)
peptide: KKKHKR
Regarding B69, the Binding affinity (RU) was 27 RU.

B70: 6mer-2-349 (peptide)
peptide: RRLSRR
For B70, the Binding affinity (RU) is 137 RU.

B71: 6mer-2-336 (peptide)
peptide: KLITKR
In turn, B71 yielded a Binding affinity (RU) of 135 RU.
